B1: IgFD-28(anti-CD3/EGFR) (bispecific antibody, human IgG1, kappa)
chain 1: EVQLVESGGGLVQPGGSLRLSCAASGFTFNTYAMNWVRQAPGKGLEWVARIRSKYNNYATYYADSVKDRFTISRDDSKNTLYLQMNSLRAEDTAVYYCVRHGNFGNSYVSWFAYWGQGTLVTVSSASTKGPSVFPLAPSSKSTSGGTAALGCLVKDYFPEPVTVSWNSGALTSGVHTFPAVLQSSGLYSLSSVVTVPSSSLGTQTYICNVNHKPSNTKVDKKVEPKSCDKTHTCPPCPAPPVAGPSVFLFPPKPKDTLMISRTPEVTCVVVDVSHEDPEVKFNWYVDGVEVHNAKTKPREEQYNSTYRVVSVLTVLHQDWLNGKEYKCKVSNKGLPSSIEKTISKAKGQPREPQVYTLPPCRDELTKNQVSLWCLVKGFYPSDIAVEWESNGQPENNYKTTPPVLDSDGSFFLYSKLTVDKSRWQQGNVFSCSVMHEALHNHYTQKSLSLSPGK
chain 2: QAVVTQEPSLTVSPGGTVTLTCRSSTGAVTTSNYANWVQQKPDHLFRGLIGGTNKRAPGTPARFSGSLLGDKAALTISGAQPEDEAEYYCALWYSNLWVFGGGTKLEIKRTVAAPSVFIFPPSDEQLKSGTASVVCLLNNFYPREAKVQWKVDNALQSGNSQESVTEQDSKDSTYSLSSTLTLSKADYEKHKVYACEVTHQGLSSPVTKSFNRGECDKTHTCPPCPAPPVAGPSVFLFPPKPKDTLMISRTPEVTCVVVDVSHEDPEVKFNWYVDGVEVHNAKTKPREEQYNSTYRVVSVLTVLHQDWLNGKEYKCKVSNKGLPSSIEKTISKAKGQPREPQVCTLPPSRDELTKNQVSLSCAVKGFYPSDIAVEWESNGQPENNYKTTPPVLDSDGSFFLVSKLTVDKSRWQQGNVFSCSVMHEALHNHYTQKSLSLSPGKGGSGGSGGGGSGGGGSDIQMTQSPSSLSASVGDRVTITCQASQDISNYLNWYQQKPGKAPKLLIYDASNLETGVPSRFSGSGSGTDFTFTISSLQPEDIATYFCQHFDHLPLAFGGGTKVEIKGGGGSGGGGSGGGGSQVQLQESGPGLVKPSETLSLTCTVSGGSVSSGDYYWTWIRQSPGKGLEWIGHIYYSGNTNYNPSLKSRLTISIDTSKTQFSLKLSSVTAADTAIYYCVRDRVTGAFDIWGQGTMVTVSS
notes: also called IgFD-28(ProA); IgFD-28(CH1)
B2: IgFD-29(anti-CD3/EGFR) (bispecific antibody, human IgG1, kappa)
chain 1: EVQLVESGGGLVQPGGSLRLSCAASGFTFNTYAMNWVRQAPGKGLEWVARIRSKYNNYATYYADSVKDRFTISRDDSKNTLYLQMNSLRAEDTAVYYCVRHGNFGNSYVSWFAYWGQGTLVTVSSASTKGPSVFPLAPSSKSTSGGTAALGCLVKDYFPEPVTVSWNSGALTSGVHTFPAVLQSSGLYSLSSVVTVPSSSLGTQTYICNVNHKPSNTKVDKKVEPKSCDKTHTCPPCPAPPVAGPSVFLFPPKPKDTLMISRTPEVTCVVVDVSHEDPEVKFNWYVDGVEVHNAKTKPREEQYNSTYRVVSVLTVLHQDWLNGKEYKCKVSNKGLPSSIEKTISKAKGQPREPQVYTLPPCRDELTKNQVSLWCLVKGFYPSDIAVEWESNGQPENNYKTTPPVLDSDGSFFLYSKLTVDKSRWQQGNVFSCSVMHEALHNHYTQKSLSLSPGKGGSGGSGGGGSGGGGSQVQLQESGPGLVKPSETLSLTCTVSGGSVSSGDYYWTWIRQSPGKGLEWIGHIYYSGNTNYNPSLKSRLTISIDTSKTQFSLKLSSVTAADTAIYYCVRDRVTGAFDIWGQGTMVTVSS
chain 2: QAVVTQEPSLTVSPGGTVTLTCRSSTGAVTTSNYANWVQQKPDHLFRGLIGGTNKRAPGTPARFSGSLLGDKAALTISGAQPEDEAEYYCALWYSNLWVFGGGTKLTVLKRTVAAPSVFIFPPSDEQLKSGTASVVCLLNNFYPREAKVQWKVDNALQSGNSQESVTEQDSKDSTYSLSSTLTLSKADYEKHKVYACEVTHQGLSSPVTKSFNRGECDKTHTCPPCPAPPVAGPSVFLFPPKPKDTLMISRTPEVTCVVVDVSHEDPEVKFNWYVDGVEVHNAKTKPREEQYNSTYRVVSVLTVLHQDWLNGKEYKCKVSNKGLPSSIEKTISKAKGQPREPQVCTLPPSRDELTKNQVSLSCAVKGFYPSDIAVEWESNGQPENNYKTTPPVLDSDGSFFLVSKLTVDKSRWQQGNVFSCSVMHEALHNHYTQKSLSLSPGKGGSGGSGGGGSGGGGSDIQMTQSPSSLSASVGDRVTITCQASQDISNYLNWYQQKPGKAPKLLIYDASNLETGVPSRFSGSGSGTDFTFTISSLQPEDIATYFCQHFDHLPLAFGGGTKVEIK
notes: (ProA)/(CH1) = purification resin; also called IgFD-29(ProA); IgFD-29(CH1)
B3: IgFD-32(anti-CD3/EGFR) (bispecific antibody, human IgG1, kappa, lambda)
chain 1: EVQLVESGGGLVQPGGSLRLSCAASGFTFNTYAMNWVRQAPGKGLEWVARIRSKYNNYATYYADSVKDRFTISRDDSKNTLYLQMNSLRAEDTAVYYCVRHGNFGNSYVSWFAYWGQGTLVTVSSASTKGPQVQLQESGPGLVKPSETLSLTCTVSGGSVSSGDYYWTWIRQSPGKGLEWIGHIYYSGNTNYNPSLKSRLTISIDTSKTQFSLKLSSVTAADTAIYYCVRDRVTGAFDIWGQGTMVTVSSASTKGPSVFPLAPSSKSTSGGTAALGCLVKDYFPEPVTVSWNSGALTSGVHTFPAVLQSSGLYSLSSVVTVPSSSLGTQTYICNVNHKPSNTKVDKKVEPKSCDKTHTCPPCPAPPVAGPSVFLFPPKPKDTLMISRTPEVTCVVVDVSHEDPEVKFNWYVDGVEVHNAKTKPREEQYNSTYRVVSVLTVLHQDWLNGKEYKCKVSNKGLPSSIEKTISKAKGQPREPQVYTLPPCRDELTKNQVSLWCLVKGFYPSDIAVEWESNGQPENNYKTTPPVLDSDGSFFLYSKLTVDKSRWQQGNVFSCSVMHEALHNHYTQKSLSLSPGK
chain 2: not shown
notes: (ProA)/(CH1) = purification resin; also called IgFD-32(ProA); IgFD-32(CH1)
B4: IgFD-33(anti-CD3/EGFR) (bispecific antibody, human IgG1, kappa)
chain 1: QVQLQESGPGLVKPSETLSLTCTVSGGSVSSGDYYWTWIRQSPGKGLEWIGHIYYSGNTNYNPSLKSRLTISIDTSKTQFSLKLSSVTAADTAIYYCVRDRVTGAFDIWGQGTMVTVSSASTKGPEVQLVESGGGLVQPGGSLRLSCAASGFTFNTYAMNWVRQAPGKGLEWVARIRSKYNNYATYYADSVKDRFTISRDDSKNTLYLQMNSLRAEDTAVYYCVRHGNFGNSYVSWFAYWGQGTLVTVSSASTKGPSVFPLAPSSKSTSGGTAALGCLVKDYFPEPVTVSWNSGALTSGVHTFPAVLQSSGLYSLSSVVTVPSSSLGTQTYICNVNHKPSNTKVDKKVEPKSCDKTHTCPPCPAPPVAGPSVFLFPPKPKDTLMISRTPEVTCVVVDVSHEDPEVKFNWYVDGVEVHNAKTKPREEQYNSTYRVVSVLTVLHQDWLNGKEYKCKVSNKGLPSSIEKTISKAKGQPREPQVYTLPPCRDELTKNQVSLWCLVKGFYPSDIAVEWESNGQPENNYKTTPPVLDSDGSFFLYSKLTVDKSRWQQGNVFSCSVMHEALHNHYTQKSLSLSPGK
chain 2: DIQMTQSPSSLSASVGDRVTITCQASQDISNYLNWYQQKPGKAPKLLIYDASNLETGVPSRFSGSGSGTDFTFTISSLQPEDIATYFCQHFDHLPLAFGGGTKVEIKTVAAPSVFIFPPQAVVTQEPSLTVSPGGTVTLTCRSSTGAVTTSNYANWVQQKPDHLFRGLIGGTNKRAPGTPARFSGSLLGDKAALTISGAQPEDEAEYYCALWYSNLWVFGGGTKLTVLKRTVAAPSVFIFPPSDEQLKSGTASVVCLLNNFYPREAKVQWKVDNALQSGNSQESVTEQDSKDSTYSLSSTLTLSKADYEKHKVYACEVTHQGLSSPVTKSFNRGECDKTHTCPPCPAPPVAGPSVFLFPPKPKDTLMISRTPEVTCVVVDVSHEDPEVKFNWYVDGVEVHNAKTKPREEQYNSTYRVVSVLTVLHQDWLNGKEYKCKVSNKGLPSSIEKTISKAKGQPREPQVCTLPPSRDELTKNQVSLSCAVKGFYPSDIAVEWESNGQPENNYKTTPPVLDSDGSFFLVSKLTVDKSRWQQGNVFSCSVMHEALHNHYTQKSLSLSPGK
notes: also called IgFD-33 (ProA)

What was measured:
[1] = biological target: T1, EGFR on F98-EGFR cells (UniProt P00533 25-1210, limits assumed); test: flow cytometry on F98-EGFR cells; protein purified on CH1 resin
T1 construct: whole, on cells

[2] = biological target: T2, CD3 on T cells (Jurkat T cells; PBMC-T cells); test: flow cytometry on Jurkat T cells; protein purified on Protein A resin
T2 construct: whole, on cells; the target is inferred from the anti-CD3 arm of the constructs
T2 sequence (P07766 23-207): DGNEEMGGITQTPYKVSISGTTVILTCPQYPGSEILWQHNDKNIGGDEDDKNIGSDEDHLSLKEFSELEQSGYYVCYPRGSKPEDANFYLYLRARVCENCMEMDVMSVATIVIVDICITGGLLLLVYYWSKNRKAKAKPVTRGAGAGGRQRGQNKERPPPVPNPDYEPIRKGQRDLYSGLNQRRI

[3] = biological target: T1, EGFR on F98-EGFR cells; test: cell-based or functional assay
[4] = biological target: T2, CD3 on T cells (Jurkat T cells; PBMC-T …); test: flow cytometry on Jurkat T cells; protein purified on CH1 resin
[5] = biological target: T1, EGFR on F98-EGFR cells; test: flow cytometry on F98-EGFR cells; protein purified on Protein A resin
[6] = biological target: T1, EGFR on F98-EGFR cells; test: flow cytometry on F98-EGFR cells
Protocol: F98-EGFR cells (a DMEM containing 10% FBS, 200 μg/ml G418) were cultured. 2×10⁵ cells were washed by precooled PBS for 3 times, and blocked by 2% FBS (soluble to PBS). IgFD-8, IgFD-9, IgFD-10, IgFD-11, IgFD-18, IgFD-19, IgFD-25, IgFD-26 or IgFD-31 (aEGFR expressed in a laboratory as a control) was added and incubated for 2 h at 4° C. (cells were gently mixed during incubation), unbounded antibodies were washed by 2% FBS (soluble to PBS), and then the remaining cells were incubated by FITC anti-human IgGFc(KPL, Inc., MD) for 1 h at 4° C., and washed by 2% FBS (soluble to PBS) for flow cytometry analysis. As shown in FIG. 7 and Table 4, the anti-CD3/anti-EGFR heterodimers in different forms of fusion could bind to EGFR on F98-EGFR cells, and there was no significant difference in the binding capacity of different heterodimers to F98-EGFR.

Binder | Kd [1] | Kd [2] | Promotion for the specific killing effect of PBMCs on target cells by heterodimers (EC50, pM); F98-EGFR cells, LDH assay; IgFD-28(CH1) [3] | Promotion for the specific killing effect of PBMCs on target cells by heterodimers (EC50, pM); F98-EGFR cells, LDH assay; IgFD-28(ProA) [3] | Kd [4] | Kd [5] | Promotion for the specific killing effect of PBMCs on target cells by heterodimers (EC50, pM); F98-EGFR cells, LDH assay; IgFD-29(CH1) [3] | Promotion for the specific killing effect of PBMCs on target cells by heterodimers (EC50, pM); F98-EGFR cells, LDH assay; IgFD-29(ProA) [3] | Kd [6]
B1 | 2.86 nM | 12.2 nM | 11.4 pM | 14.7 pM | 10.4 nM | 3.81 nM |  |  | 
B2 | 78 nM | 7.42 nM |  |  | 6.82 nM | 77.5 nM | 338 pM | 293 pM | 
B3 | 12.8 nM | 7.13 nM |  |  | 8.45 nM | 19.6 nM |  |  | 
B4 |  | 50.7 nM |  |  |  |  |  |  | 2.42 nM
